Laboratory results from patent publication US8933202B2, “AXL antibodies” (U3 Pharma GmbH, priority 2007, dated 2015).

T1: human AXL-ECD (Homo sapiens, UniProt P30530)
T1 construct: purchased R&D Systems 154-AL
T1 sequence (P30530 26-451 limits assumed): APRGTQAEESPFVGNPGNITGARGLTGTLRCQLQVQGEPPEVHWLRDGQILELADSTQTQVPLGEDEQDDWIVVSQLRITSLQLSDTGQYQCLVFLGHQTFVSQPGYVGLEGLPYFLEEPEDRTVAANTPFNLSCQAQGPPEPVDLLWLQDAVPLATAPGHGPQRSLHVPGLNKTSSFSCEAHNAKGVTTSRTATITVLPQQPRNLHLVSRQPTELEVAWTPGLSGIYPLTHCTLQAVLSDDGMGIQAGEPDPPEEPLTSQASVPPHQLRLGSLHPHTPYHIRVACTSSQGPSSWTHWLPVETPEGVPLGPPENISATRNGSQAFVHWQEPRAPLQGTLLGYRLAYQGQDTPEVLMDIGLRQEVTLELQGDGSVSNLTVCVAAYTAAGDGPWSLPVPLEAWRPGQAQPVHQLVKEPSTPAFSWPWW

T2: AXL (Homo sapiens, UniProt P30530)
T2 sequence (P30530 26-894): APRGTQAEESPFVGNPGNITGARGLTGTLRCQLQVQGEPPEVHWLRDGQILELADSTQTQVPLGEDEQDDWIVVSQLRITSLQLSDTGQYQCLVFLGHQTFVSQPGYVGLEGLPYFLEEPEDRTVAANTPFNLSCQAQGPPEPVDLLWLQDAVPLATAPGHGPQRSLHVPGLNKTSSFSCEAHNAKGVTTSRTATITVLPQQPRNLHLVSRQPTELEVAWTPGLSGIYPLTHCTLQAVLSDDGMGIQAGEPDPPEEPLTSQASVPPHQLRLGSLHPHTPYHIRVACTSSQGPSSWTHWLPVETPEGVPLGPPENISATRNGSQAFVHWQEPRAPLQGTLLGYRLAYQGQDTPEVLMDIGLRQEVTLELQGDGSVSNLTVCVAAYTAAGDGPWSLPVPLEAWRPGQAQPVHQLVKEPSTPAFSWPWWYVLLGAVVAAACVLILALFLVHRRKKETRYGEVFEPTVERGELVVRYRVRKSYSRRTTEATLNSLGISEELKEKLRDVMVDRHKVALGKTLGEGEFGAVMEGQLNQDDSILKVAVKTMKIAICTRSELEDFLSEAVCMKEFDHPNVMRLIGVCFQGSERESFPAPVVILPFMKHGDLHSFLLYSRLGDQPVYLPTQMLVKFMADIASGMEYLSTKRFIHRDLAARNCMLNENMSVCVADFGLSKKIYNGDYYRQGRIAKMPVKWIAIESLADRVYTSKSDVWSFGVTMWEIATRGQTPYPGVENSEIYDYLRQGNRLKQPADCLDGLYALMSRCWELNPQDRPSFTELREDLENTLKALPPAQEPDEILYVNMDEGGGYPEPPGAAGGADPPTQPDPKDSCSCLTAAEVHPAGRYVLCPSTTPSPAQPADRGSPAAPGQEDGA

B1: 10D12: antagonistic rat anti-AXL monoclonal antibody (antibody, V domains shown)
VL: DIQMTQAPSSLPASLGDRVTIACRASQDIGNYLRWFQQKPGKSPRLMISGATNLAAGVPSRFSGSRSGSDYSRTISSLESEDMADYYCLQSKESPWTFGGGTKLELK
VH: EVQLQESGPGLVKPSQSLSLTCSVTGYSITSNYWGWIRKFPGNKMEWMGYITNSGGTAYNPSLKSRISITRDTSKNQFFLQLNSVIPEDSATYFCSRTPWDWGQGVMVTVSS

What was measured:
C-8161 melanoma cells = assay: Soft agar colony formation assay, combination with cisplatin; format: cell-based, human; conditions: 0.25 to 1.5 μM cisplatin, 5 days, compared to untreated control cells
Experimental: Soft agar assays were conducted in order to investigate the ability of anti-Axl antibodies of the invention to inhibit anchorage-independent cell growth either alone or in combination with chemotherapeutic agents. The soft agar colony formation assay is a standard in vitro assay to test for transformed cells, as only transformed cells are able to grow in soft agar.
In brief, 750 C-8161 melanoma cells either remained untreated or were pre-incubated with the antagonistic rat anti-Axl antibody 11B7 at 15 μg/ml in IMDM medium (Gibco) for 30 min at 37° C. Subsequently, cells were combined with Difco noble agar solution resulting in 50 μl of top agar cell suspension at concentrations of Agar, FCS, and 11B7 of 0.35%, 0.2%, and 7.5 μg/ml, respectively. This cell suspension was plated on top of 50 μl of a 0.7% agarose bottom layer containing 20% FCS, and was finally covered with another 50 μl of a feeding layer solution that contains 0.2% FCS as well as cisplatin in according concentrations. In the whole of 150 μl per sample, the final concentrations of 11B7 and cisplatin were 2.5 μg/ml and 1.5 μM, 1.0 μM, 0.75 μM, 0.5 μM, or 0.25 μM, respectively. Colonies were allowed to form for 5 days and were then stained with 50 μl MTT (Sigma, 1 mg/ml in PBS) for 3 hours at 37° C. Using a Scanalyzer HTS camera system in conjunction with the HTS Bonit colony formation software (Lemnatec, Wuerselen), the effect of the antagonistic rat anti-Axl antibody 11B7 in the absence or presence of cisplatin were analyzed in triplicates.

NIH3T3-pLXSN control = assay: Primary FACS screen of hybridoma antibodies, binding to mock control cells
Experimental: Monoclonal rat anti-AXL antibodies were raised by injection of approximately 10×10^6 frozen cells of RatI-AXL cl.2 both i.p. and subcutaneously into Lou/C or Long Evans rats. After an 8-week interval, a final boost was given i.p and subcutaneously 3 d before fusion. Fusion of the myeloma cell line P3X63-Ag8.653 with the rat immune spleen cells was performed according to standard procedures and yielded 105 hybridomas. After 2 weeks, first supernatants from hybridomas were collected and tested in a primary FACS screen for binding to NIH3T3-AXL cl.7 fibroblasts versus NIH3T3-Mock control cells. Clones positive for AXL binding were further cultivated. From 50 ml supernatant of these clones, antibodies were purified and re-analyzed for specific binding to AXL on NIH3T3-AXL cl.7 fibroblasts versus NIH3T3-Mock control cells. Purified antibodies specifically binding to NIH3T3-AXL cl. 7 fibroblasts but not NIH3T3-Mock control cells were furthermore tested in Akt-Kinase phosphorylation ELISAs, and ELISAs to determine the isotype were performed. For purification of rat antibodies, supernatants were spun for 20 minutes at 5,000 g and subsequently sterile filtered. 500 μl of protein G sepharose FF were added and incubated at 4° C. for at least 1 h on a spinning wheel. […]

human AXL-ECD = target: T1, human AXL-ECD; assay: Competition ELISA on AXL-ECD coated plates; format: binding; conditions: 10 μg/ml unbiotinylated, 0.5 μg/ml biotinylated antibody
Experimental: Therefore binding of biotinylated anti-AXL antibodies to AXL-ECD domain-coated plates preincubated with anti-AXL antibodies was determined in a competition ELISA. […] On day 1, black 96 well Maxi-Sorp plates (Nunc) were coated with 100 μl/well of 1 μg/ml human AXL-ECD (R&D Systems #154-AL) in PBS over night at 4° C. […] After washing 6× with wash buffer (PBS, 0.1% TWEEN-20), 80 μl/well AP-conjugated Streptavidin (Chemicon #SA110) diluted 1:4,000 in blocking buffer were added, incubated for 20 min at room temperature washed again 6× with wash buffer and finally washed once with PBS. For detection, 100 μl/well Attophos substrate solution (Roche #11681982) were added. Using a Victor plate reader (Perkin Elmer), the fluorescence of each well was collected at an excitation wavelength of 430 nm an emission wavelength of 580 nm.

[1] = test system: NCI-H292 lung cancer cells; assay: Wound healing/scratch assay; format: cell-based, human; conditions: 10 μg/ml antibody, 24 h, compared to isotypic control antibody
Excerpt: To examine the migration and proliferation rates of different cells and culture conditions, in vitro wound healing/scratch assays are being employed for many years. These assays generally involve growing a confluent cell monolayer first. A small area is then disrupted and a group of cells are being destroyed or displaced by scratching a line through the layer with, for example, a pipette tip. The open gap is then inspected microscopically over time as the cells move in and fill the damaged area (“healing”). In brief, 1.5×10^6 NCI-H292 lung cancer cells were seeded per well of a 12 well dish and cultured in normal growth medium (RPMI, 10% FCS). After 8 h, cells were rinsed with PBS and starved in low serum medium (RPMI, 0.5% FCS) over night for 24 h. Using a sterile 200 μl pipette tip, three separate uniform wounds per well were scratched through the confluent NCI-H292 cell monolayers. […] Cells were permitted to migrate into the area of clearing for 24 h, washed once with PBS and fixed with ice cold Methanol (100%) at −20° C. After cells were stained with crystal violet (0.5% in 20% Methanol), rinsed with water and dried over night, photos of the wounds were taken.

AXL = target: T2, AXL; assay: AXL receptor tyrosine phosphorylation ELISA; format: cell-based; set-up: expressed in transfected cells; host or cells: NIH3T3-AXL cl.7 (pLXSN-hAXL) and NCI-H292 lung cancer cells (endogenous AXL); conditions: 10 μg/ml antibody, 400 ng/ml Gas6; NIH3T3-AXL cl.7 fibroblasts and NCI-H292 lung cancer cells
Experimental: ELISA experiments were performed in order to investigate whether the rat anti-AXL antibodies of the invention are able to block ligand Gash-mediated activation of AXL. Gas6-mediated AXL activation was detected by increased receptor tyrosine phosphorylation. In brief, on day 1, 3×10^4 cells per well were seeded in normal growth medium in flat-bottom 96 well plates. The next day, growth medium was replaced by serum-free medium to starve cells over night for 24 h. Also over night, black Maxi-Sorp 96 well plates (Nunc) were coated with mouse anti-phospho-tyrosine antibody 4G10 at 2 μg/ml PBS and 4° C. On day 3, the 4G10 antibody solution was removed and Maxi-Sorp wells were blocked with PBS, 0.5% BSA for at lest 4 h at room temperature. […] Medium was then flicked out and cells were lysed in lysis buffer (50 mM HEPES, pH 7.5, 150 mM NaCl, 1 mM EDTA, 10% glycerine, and 1% Triton X-100) supplemented with phosphatase and protease inhibitors (10 mM Na4P2O7, 1 mM phenylmethylsulfonyl fluoride, 1 mM orthovanadate, 1 mM NaF, and 0.5% aprotinin) for 30 min on ice. […] Using a Victor plate reader (Perkin Elmer), the fluorescence of each well was collected at an excitation wavelength of 430 nm and an emission wavelength of 580 nm.

| Molecule | soft agar colony growth, cisplatin alone (C-8161 melanoma cells) | FACS shift NIH3T3-pLXSN control (NIH3T3-pLXSN control) | competition with antagonistic anti-AXL antibodies for binding to AXL-ECD (human AXL-ECD) | re-population of the cleared area (wound closure) [1] | ligand-mediated AXL activation (phosphorylation) (AXL) |
| --- | --- | --- | --- | --- | --- |
| N.N.[Cl][Pt][Cl] [cisplatin, reference compound] | colony growth retardation in a dose-dependent manner | – | – | – | – |
| B1 | – | 0.5 | compete with each other for the same or structurally adjacent epitopes | reduced the re-population of the cleared area | able to block or reduce ligand-mediated AXL activation |
